Data: paper PMC5609902 (Oncotarget, 2017)

Legend:
[1] = molecular target: Env glycoprotein (gp160) of HIV-1 NL4-3, wild type (HIV-1 NL4-3 (clade B), UniProt Q6BC06, strain); experiment: cell-based or functional assay
[2] = molecular target: T1, JRFL rgp120 (HIV-1 JRFL (clade B), UniProt Q75760, strain); experiment: cell-based or functional assay
[3] = molecular target: T2, CN54 rgp120 (HIV-1 isolate CN54 (97CN54), CRF07_BC, UniProt Q994N8, strain); experiment: SPR; BIACORE T200; rgp120 immobilised on CM5 chip by amine coupling (20 μg/ml); antibody in two-fold dilutions injected at 30 μl/min for 3 min; 1:1 Langmuir model, global fit; settings: both partners purified
T2 construct: gp120, the surface subunit of the Env glycoprotein, HIV-1 isolate CN54 (CRF07_BC); recombinant; also called CRF07_BC (CN54)-derived rgp120; CN54 gp120; source: bought: Immune Technology Corp or Enzyme LLC

[4] = molecular target: T1, JRFL rgp120; experiment: as above; settings: both partners purified
[5] = molecular target: T3, rgp120 (R2) (HIV-1 R2); experiment: ELISA; direct ELISA; 1 μg/ml rgp120 or rgp140 coated in 0.1 M carbonate buffer pH 9.6, 4°C overnight; antibody 1 h at 37°C; detected with HRP goat anti-human IgG; settings: both partners purified
T3 construct: gp120, the surface subunit of the Env glycoprotein, HIV-1 isolate R2; recombinant; also called native rgp120; coated rgp120; source: bought: Immune Technology Corp or Enzyme LLC

B1: Y498 IgG1 (antibody, V domains shown)
VH: KVQLVQSGTELKKPGASGKVSCKASGYTFNSNGLNWVRQAPGQGLEWVGWISGHSDETKHAQNFQGRLTLTTDTSTNTAYMELRSLRSDDTAVYYCARSLLRSLERLMGGTDAFDIWGQGTLVTVSS
VL: not shown
notes: as the VH of m1; as the VL of m1; Full-length IgG1, kappa light chain, made by recloning the Fab chains in the pDR12 vector; also called whole Y498 IgG1; source: 293T, transient transfection, purified from the culture medium (protein A/G sepharose)
neutralisation of the pseudovirus with NL4-3 Env, single cycle infection of TZM-bl cells, IC50 [1]: 0.61 µg/mL | neutralisation of the pseudovirus with JRFL Env (Env on the virus, not the rgp120), single cycle infection of TZM-bl cells, IC50 [2]: > 50 µg/mL | Kd [3]: 460 pM | Kd [4]: 860 pM | binding result [5]: binds
